From paper PMC4965175

Biological target: D-allulose 3-epimerase from Flavonifractor plautii (Flavonifractor plautii ATCC 29863)
Assay: SEC; gel filtration on Sephacryl S-300 HR 16/60; purified enzyme eluted with 50 mM Tris-HCl pH 7.5, 150 mM NaCl, 1 mL/min; calibrated with ferritin, catalase, aldolase and conalbumin

stoichiometry N: 4
Substance: D-allulose 3-epimerase from Flavonifractor plautii (enzyme)
